US9114104B2, “Proteinase K inhibitors, methods and compositions therefor” (Life Technologies Corporation, priority 2008, dated 2015)
The star is where a group is joined. MeOSuc = COC(=O)CCC(=O)*; CH2Cl = ClC*

Key:
proteinase K [1] = target: T1, proteinase K (Parengyodontium album, UniProt P06873); assay: Detection of β-actin RNA in HeLa cell lysates after stop solution (in vitro validation); assay type: biochemical; conditions: FIG. 6; ~10,000 HeLa cells lysed, β-actin RT-PCR
Method: HeLa cells (˜10,000 cells) were lysed in 50 μl lysis solution for 5 minutes at room temperature. Stop solution (5 μl) was then added; the lysate-stop solution was mixed, and incubated for 2 minutes at room temperature. A volume of 10 μl of stopped lysate was added to a 50 μl RT reaction followed by addition of 4 μl of RT reaction into a 20 μl PCR reaction using the β-actin primers/probe of the TaqMan® Gene Expression Cells-to-CT™ Kit (Applied Biosystems).

proteinase K [2] = target: T1, proteinase K; conditions: 100 μg/ml proteinase K; cited from earlier work
proteinase K [3] = target: T1, proteinase K; assay: Indirect linked assay: proteinase K inhibition read out by reverse transcriptase real time PCR of Xeno RNA template (Cells-to-CT kit); assay type: biochemical
Source text: The present example provides for inhibition of proteinase K in the context of preparing samples for nucleic acid detection. Said preparation of samples is described by pending U.S. patent application Ser. No. 12/122,274 filed May 16, 2008 entitled “Sample Preparation for In Situ Nucleic Acid Analysis, Methods and Compositions Therefor,” hereby incorporated by reference in its entirety. Embodiments of said patent application provide a process for preparing a sample containing RNA for in situ analysis of RNA or a surrogate thereof. In some embodiments, the process comprises contacting the sample containing RNA with a lysis mixture comprising a polypeptide having protease activity under conditions and for a time to produce a lysate, and admixing at least a portion of the lysate with a stop mixture that comprises an inhibitor of the polypeptide having protease activity at substantially the same temperature as the contacting step to form a stopped mixture. The resultant stopped mixture is preferably compatible with in situ reverse transcriptase and DNA polymerase reactions.
Methoxysuccinyl tetrapeptide chloromethylketone compounds synthesized as set forth in Example 1 herein were analyzed for inhibitory activity of proteinase K in such stopped mixtures as described below. Functional validation for the nucleic acid detection system using inhibitors of embodiments herein was carried out by measuring mRNA levels in biological samples using the TaqMan® Gene Expression Cells-to-CT™ Kit and the TaqMan® Cells-to-CT™ Control Kit (Applied Biosystems, Foster City, Calif.). MicroAmp® optical 96-well reaction plates were purchased from Applied Biosystems. Disposable reagent reservoirs were purchased from VistaLab Technologies, Inc (Mt. Kisco, N.Y.). Reverse transcription (RT) reactions were performed at 37° C. for 60 min, 95° C. for 5 min, and cooled to 4° C. by using GeneAmp® PCR systems 9700 (Applied Biosystems). Real time PCR was performed by using 7500 Fast Real-Time PCR System. (Applied Biosystems).
The present indirect linked assay measures the amount of inhibition of proteinase K activity by assaying reverse transcriptase real time PCR amplification of a template, which amplification is dependent upon reverse transcriptase activity.
Stop solutions (100 μl) contained the following reagents (10× concentration):
Test inhibitor, 11 mM (final concentration when diluted into stopped mixture is 1 mM). Test inhibitor was also used at concentrations such that, when diluted with a lysis mixture to form a stopped mixture as described below, the final concentration of inhibitor in the stopped mixture was 0.75 mM, 0.5 mM, 0.25 mM, 0.10 mM, 0.05 mM and 0 mM (control).
Proteinase K lysis solution (50 μL (no added DNase)) from the TaqMan® gene expression Cells-to-CT™ kit (Applied Biosystems) was aliquoted into 18 tubes. To the test samples (these are a working equivalent to lysis mixtures in the Cells-to-CT™ workflow), stop solution (5 μL) was added; the tubes were mixed and held for 2 min at room temperature. For the control reactions, 50 μl of proteinase K buffer was mixed with 5 μl of stop mix without inhibitor and the resulting reaction mixture was heated at 95° C. for 10 min to thermally inactivate the proteinase K reaction. Next, reverse transcription reagents were prepared, i.e. 15 μL 2×RT buffer, and 1.5 μL of 20×RT enzyme mix, were aliquoted and mixed in the wells of a 96 well plate. To this RT solution, 13.5 μL of each proteinase K containing stopped mixture was added and the solution was mixed well. The resulting mixtures were incubated at room temperature for 1 hr for residual proteinase K activity to degrade the RT enzyme. After 1 hr incubation at room temperature, 1 μL of Xeno™ RNA Control template (Applied Biosystems P/N 4386995 diluted to 25,000 copies/μL in 10 ng/μL poly A) was added to all wells except for the no template control wells. […]

T1 sequence (P06873 106-384): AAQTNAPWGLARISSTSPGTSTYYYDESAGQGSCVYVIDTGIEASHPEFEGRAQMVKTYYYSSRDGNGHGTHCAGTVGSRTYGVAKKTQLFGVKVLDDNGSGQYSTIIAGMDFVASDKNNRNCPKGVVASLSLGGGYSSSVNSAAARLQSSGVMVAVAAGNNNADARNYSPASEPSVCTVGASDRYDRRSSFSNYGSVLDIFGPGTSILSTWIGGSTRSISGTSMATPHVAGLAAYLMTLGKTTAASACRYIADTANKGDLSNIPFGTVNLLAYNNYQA

methoxysuccinyl-AlaAlaProVal-chloromethyl ketone (MeOSuc-AAPV-CH2Cl) [reference compound]
concentration providing effective inhibition of proteinase K (proteinase K [1]): 0.5 mM | lowest concentration with inhibitory activity for proteinase K (proteinase K [2]): 0.25 mM | lowest concentration in the stopped mixture with inhibitory activity for proteinase K (proteinase K [3]; Example 2, FIG. 1, tested 1 mM to 0.05 mM in stopped mixture): about 0.25 mM | lowest concentration in the stopped mixture inhibitory for proteinase K activity (proteinase K [3]; Example 6, FIG. 5, tested 1 mM to 0.05 mM): about 0.25 mM | concentration at which inhibitor begins to lose efficacy (proteinase K [3]; FIG. 1): greater than 0.25 mM | average Ct (cycle threshold) (proteinase K [3]; FIG. 1, 0.1 mM inhibitor): 40 | average Ct (cycle threshold) (proteinase K [3]; FIG. 1, 0.25 mM inhibitor): about 33 | average Ct (cycle threshold) (proteinase K [3]; FIG. 1, 0.5 mM inhibitor, Ct ~40 = active proteinase K, ~30 = inhibited): about 30 | average Ct (cycle threshold) (proteinase K [3]; FIG. 5, 0.1 mM inhibitor): about 40 | average Ct (cycle threshold) (proteinase K [3]; FIG. 5, 0.25 mM inhibitor): about 29
